For one molecule, Kd results are on record in publication PMC12285911 (2025).

The assay has as its target T1, ^FAMFAT10 (GG–FAT10 N-terminally labeled with fluorescein amidite by sortase) (human, 5-FAM on the N terminus (5-FAM conjugated to the N terminus of the peptide …, attached by sortase)).
T1 chain: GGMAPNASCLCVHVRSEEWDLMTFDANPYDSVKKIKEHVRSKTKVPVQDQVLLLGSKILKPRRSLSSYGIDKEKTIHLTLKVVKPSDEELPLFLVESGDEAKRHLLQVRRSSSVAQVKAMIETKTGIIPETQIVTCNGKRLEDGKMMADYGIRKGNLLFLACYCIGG
The assay can be described thus: FP.

B1: NUB1^Δ1–175 (domain or fragment)
chain: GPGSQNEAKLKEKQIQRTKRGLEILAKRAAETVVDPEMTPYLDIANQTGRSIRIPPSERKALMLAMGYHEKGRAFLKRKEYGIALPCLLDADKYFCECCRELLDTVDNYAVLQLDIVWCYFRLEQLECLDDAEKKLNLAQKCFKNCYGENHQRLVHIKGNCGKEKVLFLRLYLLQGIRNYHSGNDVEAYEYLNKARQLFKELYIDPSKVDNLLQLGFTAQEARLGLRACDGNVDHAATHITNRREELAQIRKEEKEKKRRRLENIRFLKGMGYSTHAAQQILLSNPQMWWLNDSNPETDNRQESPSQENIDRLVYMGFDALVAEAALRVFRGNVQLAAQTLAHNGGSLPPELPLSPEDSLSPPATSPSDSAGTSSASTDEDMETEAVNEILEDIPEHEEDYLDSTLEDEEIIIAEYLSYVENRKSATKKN
Broadly, the Kd is the constant that tells how readily two partners part at equilibrium. B1 showed a Kd of 152 nM.
